According to PMC2638020, “Large-Scale Structural Analysis of the Classical Human Protein Tyrosine Phosphatome” (Cell, 2009):

Molecular target: the molecule itself
Experiment: AUC; sedimentation equilibrium; 0.2, 0.4 and 0.8 mg/ml, 7500 and 10,000 rpm; global fit with a self-association model; dimer to monomers

B1: RPTPγ tandem phosphatase domains (D1-D2), wild type (domain or fragment)
chain: not shown
notes: RPTPγ (PTPRG), human, tandem catalytic domains D1-D2; PDB 2NLK); Vector, tag state and construct limits are in the Supplemental Data; also called PTPRG; RPTPγ D1-D2; source: E. coli BL21(DE3), purified
With B1 the Kd was 3.5 ± 0.3 µM and the “stoichiometry N” value was 2.
